Measurements from the DeepSol protein solubility set.

Assay: soluble on expression in E. coli; label from the status in PepcDB or PDB records
In the case of “PFMFRPRKQVFQTQGAAVSSMAQTLLPNDLASKAMGSAFTALLDANEDAQKAMKIIKTLSSLSDAWENVKETLNNPEFWKQLLSRCVQLIAGMTIAVMHPDPLTLLCLGTLTAAEITSQTSLCEEIAAKFKTIFITPPPRFPTISLFQQQSPLKQVNDIFSLAKNLDWAVKTVEKVVDWFGTWIVQEEKEQTLDQLLQRFPEHAKRISDLRNGMAAYVECKESFDFFEKLYNQAVKEKRTGIAAVCEKFRQKHDHATARCEPVVIVLRGDAGQGKSLSSQVIAQAVSKTIFGRQSVYSLPPDSDFFDGYENQFAAIMDDLGQNPDGSDFTTFCQMVSTTNFLPNMASLERKGTPFTSQLVVATTNLPEFRPVTIAHYPAVERRITFDYSVSAGPVCSKTEAGYKVLDVERAFRPTGEAPLPCFQNNCLFLEKAGLQFRDNRTKEIISLVDVIERAVARIERKKKVLTTVQTLVAQ”, the “soluble on expression in E. coli” value was “not soluble”. With “PHDFPHFDKERYARTTRKVIARMNQELASHEQIKGVLMIKEPWSIENGVLTPTLKIKRHVLEQKYHELGHNWPKDELVLWEEDL” the “soluble on expression in E. coli” value was “not soluble”. In the case of “PIFEEQPINTIYPEESLEGKVSLNCRARASPFPVYKWRMNNGDVDLTSDRYSMVGGNLVINNPDKQKDAGIYYCLASNNYGMVRSTEATLSFGYLDPFPPEERPEVRVKEGKGMVLLCDPPYHFPDDLSYRWLLNEFPVFITMDKRRFVSQTNGNLYIANVEASDKGNYSCFVSSPSITKSVFSKFIPLIPIPERTTKPYPADIVVQFKDVYALMGQNVTLECFALGNPVPDIRWRKVLEPMPSTAEISTSGAVLKIFNIQLEDEGIYECEAENIRGKDKHQARIYVQAFPEWVEHINDTEVDIGSDLYWPCVATGKPIPTIRWLKNGYAYHKGELRLYDVTFENAGMYQCIAENTYGAIYANAELKILALAPTFEMNPMKKKILAAKGGRVIIECKPKAAPKPKFSWSKGTEWLVNSSRILIWEDGSLEINNITRNDGGIYTCFAENNRGKANSTGTLVITDPTRIILAPINADITVGENATMQCAASFDPALDLTFVWSFNGYVIDFNKENIHYQRNFMLDSNGELLIRNAQLKHAGRYTCTAQTIVDNSSASADLVVRGPPGPPGGLRIEDIRATSVALTWSRGSDNHSPISKYTIQTKTILSDDWKDAKTDPPIIEGNMEAARAVDLIPWMEYEFRVVATNTLGRGEPSIPSNRIKTDGAAPNVAPSDVGGGGGRNRELTITWAPLSREYHYGNNFGYIVAFKPFDGEEWKKVTVTNPDTGRYVHKDETMSPSTAFQVKVKAFNNKGDGPYSLVAVINSAQDAPSEAPTEVGVKVLSSSEISVHWEHVLEKIVESYQIRYWAAHDKEEAANRVQVTSQEYSARLENLLPDTQYFIEVGACNSAGCGPPSDMIEAFTKKAPPSQPPRIISSVRSGSRYIITWDHVVALSNESTVTGYKVLYRPDGQHDGKLYSTHKHSIEVPIPRDGEYVVEVRAHSDGGDGVVSQVKISGAPTLSPSLLGLLLPAFGILVYLEF”, the “soluble on expression in E. coli” value was “soluble”. In the case of “PLGVSAAGALDRASLRRANRLVGNASSAAAIESVNGGLTVEAVGDQVIAVTGAPTTLTIESPSWVGSDDDDGGARPGGKRTVPMAAPFALLDGELLTLGAPESGFRNYVAIRGGVDAPEVLGSRSADTMSGIGPAPLAIRQVLATGEQTASTAVGAPELQPDFPGAGVTVLDVVPGPRADWFDQEALDSLCNQEWLVTPQSNRVGMRLDGKPLERTREGELPSEGTMAGALQIPPAGLPVLFLADHPITGGYPVIGVVRDEHLDRAAQVPIGGRIRFRLVPDSADFTTTTTKTPEK”, the “soluble on expression in E. coli” value was “not soluble”. In the case of “PRRTDADGEKMLAYLNTLYADKQAFELRADSLRKEVRQRLGIDTLLAQCVNSTPILSKIRKFDGYTVQNFALETLPGLYVCGSVYTPQSKGKHALIICPNGHFGGGRYREDQQQRMGTLARMGAVCVDYDLFGWGESILQVGSTAHRSSAAHTIQAMNGLLILDYMLASRKDIDTKRIGANGGSGGGTHTVLLTTLDDRFTASAPVVSLASHFDGGCPCESGMPIQLSAGGTCNAELAATFAPRPQLVVSDGGDWTASVPALEFPYLQRIYGFYDAKDNVTNVHLPKEKHDFGPNKRNAVYDFFAEVFD”, the “soluble on expression in E. coli” value was “not soluble”. With “PRVVFIDEQSGEYAVDAQDGQSLMEVATQNGVPGIVAECGGSCVCATCRIEIEDAWVEIVGEANPDENDLLQSTGEPMTAGTRLSCQVFIDPSMDGLIVRVPLPA” the “soluble on expression in E. coli” value was “soluble”. For “PSSAVGSGSEGFIVRLPAALLFKEGGIEVENSDGFLFVKRMAEIVNRLPKDVHVEVRGHTDTLPLPAQAPQDKLELTAKRALSVSKLLVKEGIDPKRITTVGRGDQDPLTHARTPEAQESNRRVDIYLYPKE”, the “soluble on expression in E. coli” value was “soluble”. With “PSVQVTDGQINGESVRFIAVVPDANNHYPRAAGGEVGLLEGWTLAKVVNETIAADADRPVKRPIVAVIDVPSQAYGRREEAFGIHQALAGAAGAYAKARLAGHPVIGLIVGKAMSGAFLAHGYQANRLIAFNDSGVLVHAMGKASAARITLRTVEALEKLAATIPPMAY” the “soluble on expression in E. coli” value was “not soluble”. For “PTQSPSEFIAELARCAQPIAQANDLYASVMMAQAIVESGWGASTLSKAPNYNLFGIKGSYNGQSVYMDTWEYLNGKWLVKKEPFRKYPSYMESFQDNAHVLKTTSFQAGVYYYAGAWKSNTSSYRDATAWLTGRYATDPSYNAKLNNVITAYNL”, the “soluble on expression in E. coli” value was “not soluble”. For “PVKPVAPGEQQKNWAHWGNTTHGDRFAALDQINKQNVNQLQVAWVAHTGDIPQSNGSGAEDQNTPLQIGDTLYVCTPYSKVLALDVDSGKEKWRYDSKSSSPNWQRCRGLGYYEDSQAQTAPAAGTQPAACSRRLFLPTIDARLIAIDADTGKLCESFGDRGIVDLSVGMGEVKAGYYQQTSTPLVAGNVVVVGGRVADNYSTGEPPGVVRAFDVHTGKLAWAWDPGNPALTGVPPEGQTYTRGTPNVWSAMSYDAKLNLIYLPTGNATPDFFGGERTALDDKYSSSIVAVDATTGQVRWHFQTTHHDLWDFDLPSQPLLYDLPDGKGGTTPVLVQTSKQGMIFMLNRETGEPVAKVEERPVPAGNVKGERYSPTQPYSVGMPMIGNQTLTESDMWGATPIDLLLCRIQFKEMRHQGVFTPPGEDRSLQFPGSLGGMNWGSVSLDPNNSLMFVNDMRLGLANYMVPRAKVAKDASGIEMGIVPMEGTPFGAMRERFLSPLGIPCQKPPFGTMSAVDLKTGKLVWQVPVGTVEDTGPLGIRMHMPIPIGMPTLGASLATQSGLLFFAGTQDFYLRAFDTANGKEIWKSRLPVGSQSGPMTYVSPKTGKQYIIINAGGARQSPDRGDYIIAYALPDHH”, the “soluble on expression in E. coli” value was “not soluble”. In the case of “PVTSISHEQLQQVHAEAGLTIALSTSVGDDLFYVDHVSSEPEYAYLAENRLRRSLLRTSAGWLLLADREQRDIWAYLNSRPVADADYIEQFLYALEALRATGVCAAPGVAVEHGDGVSVALRERGRTIATLGVVGVRETIIERRDELAKICLRHAEEWGFR”, the “soluble on expression in E. coli” value was “soluble”. With “QAPEQRSIRDGILLLHELGALTDDTQADGSPQLTQIGKDLANIPVDPRMARMLVEANTLGCLHSVMVIVSALTIQDVRERPLEFQAQADQAHARFKDTT” the “soluble on expression in E. coli” value was “not soluble”. In the case of “QDLLLSYKGKLKNDSIEGEFRQGRFGTMMSLYRGLDAAKPYRPQTPVPPFPYDVTDVKILHKTGGFTIAGTLTAPKDANKTKGTVILISGSGLQDRDETIFGHKPFAVLADQLTRHGYAVLRCDDRGFGESAGDASQATTDTLAGDIESELAYLRQHYPRLTDKVFLIGHSEGGIIAPMVARRVGGIAGLVLVGAPSVKGAEILLSQNAAMDEFATGQPQSQAKRAALEELIRQATAPGDTSDIRTRIESYCRSNASVLFPQAMTDEMKEQGIKLMTEQLYTPWMRHFLTYDPAPLLDVTSGEGSHPLPPTMAIYGGRDKQVLHEVNMSKMKSLLGIETGNTTNKVVYLPEVNHIMQPAEFGTPDEYAFLNRTVDTELMEIVCSFLDSL”, the “soluble on expression in E. coli” value was “not soluble”. With “QETEDPACCSPIVPRNEWKALASECAQHLSLPLRYVVVSHTAGSSCNTPASCQQQARNVQHYHMKTLGWCDVGYNFLIGEDGLVYEGRGWNFTGAHSGHLWNPMSIGISFMGNYMDRVPTPQAIRAAQGLLACGVAQGALRSNYVLKGHRDVQRTLSPGNQLYHLIQNWPHYRSP” the “soluble on expression in E. coli” value was “soluble”. In the case of “QFLSGQLSIKLWFDKVGHQLIVTILGAKDLPSREDGRPRNPYVKIYFLPDRSDKNKRRTKTVKKTLEPKWNQTFIYSPVHRREFRERMLEITLWDQARVREEESEFLGEILIELETALLDDEPHWYKLQ”, the “soluble on expression in E. coli” value was “soluble”. In the case of “QGEIRVGPSHQAKLPDLQPFPSPDGDTVTQHEELVWMPGVNDCDLLMYLRAARSMAAFAGMCDGGSTEDGCVAASRDDTTLNALNTLHESGYDAGKALQRLVKKPVPKLIEKCWTEDEVKRFVKGLRQYGKNFFRIRKELLPNKETGELITFYYYWKKT”, the “soluble on expression in E. coli” value was “not soluble”. For “QKNPDSYNGAVRENYTWSQDYTDLEVRVPVPKHVVKGKQVSVALSSSSIRVAMLEENGERVLMEGKLTHKINTESSLWSLEPGKCVLVNLSKVGEYWWNAILEGEEPIDID”, the “soluble on expression in E. coli” value was “soluble”. For “QKRAWITAPVALREGEDLSKKNPIAKIHSDLAEERGLKITYKYTGKGITEPPFGIFVFNKDTGELNVTSILDREETPFFLLTGYALDARGNNVEKPLELRIKVLDINDNEPVFTQD”, the “soluble on expression in E. coli” value was “soluble”. With “QLNPYLRLKVRRDHIIDDALVRLEMIAMENPADLKKQLYVEFEGEQGVDEGGVSKEFFQLVVEEIFNPDIGMFTYDESTKLFWFNPSSFETEGQFTLIGIVLGLAIYNNCILDVHFPMVVYRKLMGKKGTFRDLGDSHPVLYQSLKDLLEYEGNVEDDMMITFQISQTDLFGNPMMYDLKENGDKIPITNENRKEFVNLYSDYILNKSVEKQFKAFRRGFHMVTNESPLKYLFRPEEIELLICGSRNLDFQALEETTEYDGGYTRDSVLIREFWEIVHSFTDEQKRLFLQFTTGTDRAPVGGLGKLKMIIAKNGPDTERLPTSHTCFNVLLLPEYSSKEKLKERLLKAITYAKGFGML” the “soluble on expression in E. coli” value was “soluble”. In the case of “QMNYEEVIKKYRGEENFDHAAYDWRLHSGVTPVKDQKNCGSCWAFSSIGSVESQYAIRKNKLITLSEQELVDCSFKNYGCNGGLINNAFEDMIELGGICPDGDYPYVSDAPNLCNIDRCTEKYGIKNYLSVPDNKLKEALRFLGPISISVAVSDDFAFYKEGIFDGECGDQLNHAVMLVGFGMKEIVNPLTKKGEKHYYYIIKNSWGQQWGERGFINIETDESGLMRKCGLGTDAFIPLIE”, the “soluble on expression in E. coli” value was “soluble”. With “QPAQSGAFLVDQSQLTQSSILIGHQGGQLSNPDYPELSVMNGVINGFGGRLFNEIRSRQGLAYSVYGVWSPRYDYDGQFIAGGSTRTEATVPFITAMKGEIKRLQTELITPAELAYAKDSILNSFVFNFEDPGQTLSRLMRYEYYGYPEDFIFQYQREVEATTIEDVQRVAQTYLKPEQLTVLVVGN” the “soluble on expression in E. coli” value was “not soluble”. For “QRVKRLLSITNDKHDEYLTEMVPLLVEFAKDECHNPFIDKDGNESIPSGVLIFVAKAAQFYMTNAGLTGRSMDTVSYNFATEIPSTILKKLNPYRKMAR”, the “soluble on expression in E. coli” value was “soluble”. For “QSFRAIQLSDLHIGGLIEEHYMEALGERINALKPDMIFLTGDITDASCEQIRTPLEKLKALQAPLGIYFVSGNHEFFHGIQKTMDFLREMGIVVLENDSRTIEGLVNIAGVHDLFGRRIGFLEPDLEQALYGIDPSLPTILLAHQPKFAKEALGYPVDLILSGHTHGGQIAPFGLLVR”, the “soluble on expression in E. coli” value was “not soluble”. With “QSIEKLYAEFETEPIASASIAQVHKARLHSGEQVAVKVLRPNLLPVIEQDLSLMRFGAGWVERLFADGKRLKPREVVAEFDKYLHDELDLMREAANASQLGRNFQNSDMLIVPKVFYDYC” the “soluble on expression in E. coli” value was “not soluble”. In the case of “QSQGGGSVTKKRKLESSESRSSFSQHARTSGRVAVEEVDEEGKFVRLRNKSNEDQSMGNWQIRRQNGDDPLMTYRFPPKFTLKAGQVVTIWASGAGATHSPPTDLVWKAQNTWGCGSSLRTALINSTGEEVAMRKLVR”, the “soluble on expression in E. coli” value was “soluble”.
